T1: Abp1 SH3 (ABP1_YEAST), P15891
T1 chain: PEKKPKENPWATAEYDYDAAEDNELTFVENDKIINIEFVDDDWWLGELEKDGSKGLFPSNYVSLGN


Biological target: T1, Abp1 SH3 (ABP1_YEAST), P15891
Assay: SPOT array

| normalised SPOT signal, Boehringer light units (BLU); mean over the file's lines of this peptide | Binder |
| --- | --- |
| 526 | FEMVTEVPIPRRP [YGR156W 132-144] |
| 132 | ESIDASKPEKVKP [YFL025C 369-381] |
| 534 | EPVTKERPHFNKP [YER161C 148-160] |
| 83.2 | FDYIVTREFRPTKP [YOR131C 125-138] |
| 115 | FSYPISSPINFKP [YPR164W 96-108] |
| 488 | ERSKNLIPPAFRP [YGL173C 598-610] |
| 156 | EPPQDQAPSLPPKP [YCL008C 154-167] |
| 105 | ESKLSSLIIPPSKP [YJL193W 97-110] |
| 82.5 | ETQPIQNFQPPPKP [YBR108W 650-663] |
| 86.6 | EVRDLWLSILPTKP [YBR115C 851-864] |
| 39.2 | EVVKILRESNPPRP [YJR010W 379-392] |
| 615 | ETGVSIKNPRPSRP [YPR096C 4-17] |
| 619 | EPKMQKQTIFPGKP [YHL022C 194-207] |
| 250 | EVRKVYIPKVVKP [YJR143C 526-538] |
| 63 | FGLEQISPAQKKP [YDL217C 6-18] |
| 173 | FDKKNETPRKRKP [YBL046W 314-326] |
| 80.3 | ENAVKSEQQFPGRP [YOR347C 67-80] |
| 21.5 | ENPIDKLDGTPKRP [YIL063C 22-35] |
| 18.6 | EPASVYESNGPNKP [YMR086W 699-712] |
| 101 | FFPNVNSPSVNKP [YNR045W 370-382] |

| normalised SPOT signal, Boehringer light units (BLU); mean over the file's lines of this peptide | Binder |
| --- | --- |
| 24 | ELQNEDWPNESKP [YNL274C 336-348] |
| 156 | FASKVNYPVLIRP [YJR109C 723-735] |
| 48.8 | ESFSSGSLSPPSRP [YDR348C 88-101] |
| 126 | EQKLPTALLSPLRP [YCL051W 196-209] |
| 87.1 | ENRKGEKDAAPAKP [YGL061C 171-184] |
| 2280 | FEKGPRMPSRGRP [YPR171W 143-155] |
| 67.4 | EQEEFTSPYFGRP [YIL031W 818-830] |
| 152 | ELRGLDDPTIVKP [YGR099W 548-560] |
| 51.6 | EQAPTGLVLEPSKP [YBR284W 656-669] |
| 147 | ESASHETPTDLRP [YKL204W 262-274] |
| 97.4 | ESKMSLAPHEYKP [YGR097W 219-231] |
| 55.3 | FEEPEDFLPPPPKP [YLR285W 14-27] |
| 48.4 | FIDDLKQPKYVRP [YPL070W 96-108] |
| 186 | FFQLPPVSKDPNRP [YML061C 379-392] |
| 84.9 | ENYLSTRPSVLKP [YOR217W 594-606] |
| 87.7 | EQIVLGQPKTNRP [YDR062W 281-293] |
| 27.2 | ESLNLQFQAHPPKP [YKR050W 395-408] |
| 138 | ENEPTLNPFTNKP [YJR122W 411-423] |
| 155 | EYKYSRPPYNFKP [YBR043C 498-510] |
| 85.3 | FAEKVGYPVLVRP [YJL130C 1124-1136] |

| normalised SPOT signal, Boehringer light units (BLU); mean over the file's lines of this peptide | Binder |
| --- | --- |
| 136 | ETELGHVPLVERP [YDL079C 472-484] |
| 101 | FDGKPTATPSPFRP [YMR153W 197-210] |
| 201 | ERLERQFEEVPFRP [YPL027W 171-184] |
| 70.8 | EVPMFVNPANAKP [YHL038C 181-193] |
| 675 | ESFRERPLEPPRKP [YDR448W 139-152] |
| 54.3 | ETVTNSGGLQPLKP [YOR329C 474-487] |
| 10400 | ERLQSQPPRPPRP [YGR268C 21-33] |
| 146 | ESLKLYYRHRPQKP [YOL164W 141-154] |
| 73.8 | FASDSLLDLSPIKP [YCL018W 111-124] |
| 168 | FDSQFSAPFNGRP [YBL014C 791-803] |
| 52.7 | EYLDQKNPQKEKP [YDR293C 662-674] |
| 284 | FDIVFPAPKGKRP [YBR034C 258-270] |
| 77.9 | ERRKQLKKQGPKRP [YKL032C 351-364] |
| 127 | ENEFQVIPIRFKP [YER085C 144-156] |
| 143 | EMYQDKLPPNVKP [YHR190W 379-391] |
| 106 | ERPLPDLPSTIKP [YKR027W 750-762] |
| 55.6 | ETLWDLPPKFPEKP [YDR444W 182-195] |
| 10.5 | FIDPSLRPIIVKP [YPR056W 253-265] |
| 61.2 | EYGHHARPDSKRP [YMR268C 2-14] |

Source: PMC314469, “Protein Interaction Networks by Proteome Peptide Scanning” (PLoS Biology, 2004)
